Data taken from the DeepSol protein solubility set.

assay: soluble on expression in E. coli; label from the status in PepcDB or PDB records

| Sequence | soluble on expression in E. coli |
| --- | --- |
| MTEDRLSAEDKKFLEVERALKEAALNPLRHATEELFGDFLKMENITEICYNGNKVVWVLKNNGEWQPFDVRDRKAFSLSRLMHFARCCASFKKKTIDNYENPILSSNLANGERVQIVLSPVTVNDETISISIRIPSKTTYPHSFFEEQGFYNLLDNKEQAISAIKDGIAIGKNVIVCGGTGSGKTTYIKSIMEFIPKEERIISIEDTEEIVFKHHKNYTQLFFGGNITSADCLKSCLRMRPDRIILGELRSSEAYDFYNVLCSGHKGTLTTLHAGSSEEAFIRLANMSSSNSAARNIKFESLIEGFKDLIDMIVHINHHKQCDEFYIKHR | soluble |
| MGSDKIHHHHHHAPPTFPEVKKIHAHRLSDELLISYPLDMAVSEDYIFILALADNAWLQVYDKTTGQLLGSFVTRGQGPGEATTANMCYYNAREKKISVYDESSMKLLTYRFDKDADNWGALIEERSFYDLGGTVRRVWELRNGRFLVDGQLGTKSDQQKRFQMLADAKVVADYNDFPIDTPKERSVWSSPAIAISPDCKKMAVGTLYGGILELFDLSQNIELRAIRKFYPPVVQYLSGTIQNTEETVWGFSALCVTDERIYSVFIGDKNPNLFNNLSVFDWDGRELIKYNTDCLVLRICASTQEPNKLYGIAFSETHEFYLVSFSLGS | not soluble |
| LDINKPENVISKEVSFLGEALPKSIKSECPNESFTLDDKDVVKSTSGSVQNEPLKNINENIYDPKLKKALDKSKPEILIYHSHTTEAYKPYPADSLNSTQNVCAVGDELVKELGEKYGIYAINDKTVHNVVDYNKSYTRSGETLDKYLKQYGDFKMIIDMHRDSDVPKSKVTARINGEDVAKFMFVMTRKNPHFDKNMALVNGLVSICNKDFPGIFNGIYYYDYGINYYNQQKSNNAFLLEVGSDINTIDEAKGTSKYLARIIAEYLNGKK | not soluble |
| MGHHHHHHSHMAAMLNFNLQQLCGPKCRDLKVENPEKYGFEPKKLLDQLTDIYLQLDCARFAKAIADDQRSYSKELFEEVISKMRKAGIKSTIAIEKFKLLAEKVEEIVAKNARAEIDYSDAPDEFRDPLMDTLMTDPVRLPSGTIMDRSIILRHLLNSPTDPFNRQTLTESMLEPVPELKEQIQAWMREKQNSDH | soluble |
| APAILLVDDEPHSLAAMKLALEDDFDVLTAQGAEAAIAILEEEWVQVIICDQRMPGRTGVDFLTEVRERWPETVRIIITGYTDSASMMAAINDAGIHQFLTKPWHPEQLLSSARNAARMFTLARENERLSLEMRLLERP | soluble |
| MSLKPRIAIVGLGLIGGSLARRLVNAGCEVTAWNHNDRPYATAEADGIICKPTLAALAETKPNVLVLCNPLKAMPEILGALKPLIDTETTTLTDVGSVKGMVRDQVKAIGLDGCYVGAHPMAGNELSGWEASDPTLYDDALWAITVDEHTEYRRFRAVADMIVNRCGNRLIVLDDATHDRCAALISHMPHVIATAMINELVANPNRNIAAALAAGSWRDMTRVALTDPNRTRAMVEEDAANVETLLRNMANRLTLVANVLHDMADTGVRPTEGDVKQMDRFFAQGQPFRDYKAASRQPEYAEHCATVELSIPENDWQRTLLESARRGEHIVRFDGERTAIAQARSVEGHHHHHH | soluble |
| MKESNSRREFLSQSGKMVTAAALFGTSVPLAHAAVAGTLNCEANNTMKITDPHYYLDNVLLETGFDYENGVAVQTRTARQTVEIQDGKIVALRENKLHPDATLPHYDAGGKLMLPTTRDMHIHLDKTFYGGPWRSLNRPAGTTIQDMIKLEQKMLPELQPYTQERAEKLIDLLQSKGTTIARSHCNIEPVSGLKNLQNLQAVLARRQAGFECEIVAFPQHGLLLSKSEPLMREAMQAGAHYVGGLDPTSVDGAMEKSLDTMFQIALDYDKGVDIHLHETTPAGVAAINYMVETVEKTPQLKGKLTISHAFALATLNEQQVDELANRMVVQQISIASTVPIGTLHMPLKQLHDKGVKVMTGTDSVIDHWSPYGLGDMLEKANLYAQLYIRPNEQNLSRSLFLATGDVLPLNEKGERVWPKAQDDASFVLVDASCSAEAVARISPRTATFHKGQLVWGSVAG | soluble |
| MGSDKIHHHHHHMPVQQLFYKTAVPVSAKRHGDLSISSGKTYAFARHTNSIPLTALEFGPAAGTHPIVFAGTGEDVVPAIIVGTREDENLAVDADGNWQGTYIPAFARRYPFIFSLDKDKNQFTLLVDEEFEGANRDGRGERLFDSEGEQTGYLKSVLKFLQDYQAGFARTQAFCKRLKELDLLVPMQAEFSLGAGQKRTLGGFQVVDREKLKALSGEVLADLCRKDELECIYLHLSSMRHFRQMLERANTEASEAEPETDAADVAEPMAET | not soluble |
| MKKRYRAINDYYRELFGEKIFKLPIDAGFDCPNRDGTVARGGCTFCTVSGSGDAIVAPEAPIREQFYKEIDFMHRKWPEVNKYLVYFQNFTNTHAKLEIIKERYEQAINEPGVIGINIGTRPDCLPDETIYYLAELSERMHVTLELGLQTTYEATSALINRAHSYDLYKKTVKRIRELAPKVEIVSHLINGLPGETHDMMVENVRRCVTDNDIQGIKLHLLHLMTNTRMQRDYHEGRLRLLSQEDYISIICDQLEIIPKHIVIHRITGDAPRHMLIGPMWSLNKW | not soluble |
| MGSDKIHHHHHHMKVQYSFEREFEELMSDLLSKYGYEMFQMDGLGDQLDVVKFTEDFVRRGIIESTIDANANVRVTNISTYFIEISKPHTYLYSLYRIWQKMKEMFGKGVADEFVEAQINGAVYLHDRHHAALMPYCFAYTLKPIVEKGLPFIKTIKSEPAKHLSTFIQHVIQFVMFASNQSSGAVGLPDFFVWMWYFVKKDLKEGIIPRDKLDWYIEQHFQILTYSLNQPIRTTQSPYTNFTYLDRNYIKAIFEGERYPDGSLITDHVEDIIALQKHYWEWVSRERERQMFTFPVLTASLLYKDGKFLDEDSARFINKINMKWQDTNWYISDSIDAVASCCRLTSSTQTLKKFSLSSEEEEKLKGRMNSIGGSDLNIGSFKVITVNLPRIALESGGDREKYLQILRHRVQLIKKALAAVREIIKERISEGLLPLYENGLMLLNRQYGTIGVTGVWESASIMGLTTEDIDGLKYTEEGEVFVDNVLDTIREEAEKGYHEYGFTFNIEQVPAEKAAVTLAQKDRFLFGEKQPFEIYSNQWVPLMANTDVLNRIRYSGKWDKKVSGGAILHINLGESFKTEEESFNMVKMIADMGVMYFAFNTKISVCEDGHAFYGERCPVCGKAKVDEYMRIVGYLVPVSAFNKERREIEYPRRQFYDSLTIRR | not soluble |
| MSKSGVPRLLTASERERLEPFIDQIHYSPRYADDEYEYRHVMLPKAMLKAIPTDYFNPETGTLRILQEEEWRGLGITQSLGWEMYEVHVPEPHILLFKREKDYQMKSQQRGG | soluble |
| MSLSMSKRLLLFDFDETYFKHNTNEEDLSHLREMEKLLEKLTNNNEVMTAVLTGSTFQSVMDKMDQVNMTFKPLHIFSDLSSKMFTWNNGEYIESETYKKKVFSEPFLFEDIEDILRHISAQYNVEFIPQRAFEGNETHYNFYFHSTGNHSNDRRILEALVRYANDQNYTARFSRSNPLAGDPENAYDIDFTPSNAGKLYATQFLMKKYNIPVKSILGFGDSGNDEAYLSYLEHAYLMSNSRDEALKQKFRLTKYPYYQGITLHVKEFVEGKYDYEGHHHHHH | soluble |
| SYHPLLSSSAKASADGFKPLPAIELLDRASESPTTVEIAATTTSDSCSDGARSRFQRLKVVLDLDETLVCAYETSSLPAALRNQAIEAGLKWFELECLSTDKEYDGKPKINYVTVFERPGLHEFLEQLSEFADLILFTAGLEGYARPLVDRIDTRKVLTNRLYRPSTVSTQYRDHVKDLLSTSKNMCRTVIVDNNPFSFLLQPSNGIPCIAFSAGQPNDTQLLDVILPLLKQLSEEDDVRPTLYDRFRMPEWFEKQGIPPSCWKP | soluble |
| RPAPLWAVVADAAVQPAMAAGNDDFETARALDTARELVAGLREGVDSLGGDVAEFKAAIPQHNFEQICDGCFAPIDPGVEPDYVVAHRVSCCMIYHSPTAGKCTSCPHQDKDVRKNALIAASESF | not soluble |
| MNSEQQQTVFLCVSYLLSYPDEQWAESLPDCLDAIRSLDDETVRAPLLAFAEQINSIPARQRMEQYVETFDFGKKTNLYLTYMTNGEQRERGIELVALKARYQAAGFAVSDHELPDYLPLMLEWMAYADQEHTTALLADYAGHIREIGDRLAAAGSPYAQLFDALNHTFTQLGVTPLPKGGATAWPANFSG | not soluble |
| MNLPSKFHQVTITDPIAGAGITFTIPTRYVNLKFLNVGAQGIVVMADDLVTTQRVAIKKMQQPFLLTMSARRAYREFILLTTLKHPNIIRLLNAFTPDTSLSSFQEVYLVMEFMTHNLHEVIHRLRLDHETLSFLVYQSLCAIKHLHNLGFIHRDLKPSNIVVNERCVLKVLDFGLARRRNVDMRMSDYVGTRYYRAPEVILGLNYSEKVDIWSVGCILAEMINHTVLFPGKDIRDQWTQISSVLRTPDDHFINQLEPIGAVYVRSLPQHLARAFNEIVPDSNFLPETENPKDHLTLHMARDLLFNMLKINPEERYSVEDALNHPYTMVQGR | not soluble |
| SLIKNEHVKKCDTWPSGGEMVVKDLTVKYVDDGNAILENICFSISPGQRVGLLGRTGSGKSTLLSAFLRMLNIKGEIQIDGVSWNSMTLEEWRKAFGVITQKVFIFSGTFRQNLDPNGKWRDEEIWKVADQVGLKSVIEQFPGQLNFTLVDGGYVLSHGHKQLMCLARSVLSKAKIILLDEPSANLDPITYQVIRRVLRQAFAGCTVVLCEARIEAMLDCDRFLVIEQGNVWQYESLQALLSEKSDFQRALSSSE | soluble |
| LPAGLYFVGTPIGSARDITLRALDVLASAEVIAAEDTRSLRHLLDIHGVPLDGRRVLAYHDHSGAGAQARLLEALAEGKSVAYASEAGMPLIADPGFELSRAAAEAGHMVTCAPGPS | not soluble |
| MSKTRIAFVGAGNMAASLIGGLRAQGVEASLICASAPGAETRERISTEHGIEVFADNAEAVKGADVVVLAVKPQMMKSVCQALKASLEAHQLIVSVAAGITCASLTQWLGDQPVVRCMPNTPSLLRQGASGLYATDKVSPTQREQAEQLLSAVGVAVWVEQEKHMDAVTAVSGSGPAYFFLMMEAMTAAGVKLGLPEDIAKKLTLQTALGSALIATGSNVDAGELRRRVASPGGTTEAAIKAFQAGGFEALVETALTAADHRAAELAEQLGKLEHHHHHH | not soluble |
| KKIIHELLDDILFFETAPTIHKVILHGKNRQVEFYGKLKSIEKMLDESFYRCHRSYIVNKKNIHELDTTKGVVKMSNGENCYASSKLIKSLSL | not soluble |
| MSLRLKIGSPVFFKQVRPGLHGKPFTLYKFRTMTDERDSKGNLLPDEVRLTKTGRLIRKLSIDELPQLLNVLKGDLSLVGPRPLLMDYLPLYTEKQARRHEVKPGITGWAQINGRNAISWEKKFELDVWYVDNWSFFLDLKILCLTVRKVLVSEGIQQTNHVTAERFTGSGDVSSEGHHHHHH | not soluble |
| SLRGWRGLRVYDMHVHLHEYSDREVEEILDADKSLVVVAVSDDLESAWRTLDLWHTFGGRVVPCLGFHPWNVREGRVWEAWEVLRLAYRYGVPCLGEVGLDRRFVDEYTWRVQNEVFDAFVQLAEDMGVMLNIHAPDAWKHVAHRIGWTSRARFMYHWYTGPATLPRALPEGRVWFSINSAIRVQEKSVRVAREIPLRSLVVESDGPYNYRGLRLSPLMVRETVKLVAEARGEDPGRLMEAISLNSERLLGLL | soluble |
